Data published in the supplement of paper PMC7877785.
± gives the uncertainty stated by the source.

Assay: self-splicing fitness, log relative to wild type (ln ratio); higher = more splicing; Tetrahymena group I intron in knt gene, E. coli kanamycin selection, DiMSum; sequences stand for … in CUCUCU…GGAGGGAAAAGUUAUCAGGCAUGCACCUGGUAGCUAGUCUUUAAACCAAUAGAUUGCAUCGGUUUAAAAGGCAAGACCGUCAAAUUGCGGGAAAGGGGUCAACAGCCGUUCAGUACCAAGUCUCAGGGGAAACUUUGAGAUGGCCUUGCAAAGGGUAUGGUAAUAAGCUGACGGACAUGGUCCUAACCACGCAGCCAAGUCCUAAGUCAACAGAUCUUCUGUUGAUAUGGAUGCAGUUCACAGACUAAAUGUCGGUCGGGGAAGAUGUAUUCUUCUCAUAAGAUAUAGUCGGACCUCUCCUUAAUGGGAGCUAGCGGAUGAAGUGAUGCAACACUGGAGCCGCUGGGAACUAAUUUGUAUGCGAAAGUAUAUUGAUUAGUUUUGGAGUACUCGUGGUCG
In short: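 Fitness was computed with DiMSum as the error-weighted combination of replicate fold changes, kanamycin versus none, each normalised to wild type. The library randomised all eight intron nucleotides of the P1ex region, with the intron placed in the knt kanamycin-resistance gene on pET-22b(+) in E. coli BL21(DE3). Six replicate transformations were grown overnight at 37°C or 30°C on LB agar with or without 25 μg/mL kanamycin, plus 100 μg/mL carbenicillin, 50 μM IPTG and 0.2% rhamnose. Pooled colonies were amplicon-sequenced on an Illumina HiSeq 2500.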

Sequence	self-splicing fitness (ln) (30 °C)	self-splicing fitness (ln) (37 °C)
AUAAAGCAAUAUUACGGUGC	-1.95 ± 0.1	-0.743 ± 0.13
AUAAAGCAAUAUUACGUAAA	-2.39 ± 0.11	-1.03 ± 0.12
AUAAAGCAAUAUUACGUACG	-0.889 ± 0.095	-0.0766 ± 0.13
AUAAAGCAAUAUUACGUAGC	-3.74 ± 0.27	-1.26 ± 0.2
AUAAAGCAAUAUUACGUCUA	0.308 ± 0.078	0.497 ± 0.099
AUAAAGCAAUAUUACGUUAG	-1.33 ± 0.067	-0.504 ± 0.088
AUAAAGCAAUAUUACGUUCU	0.0113 ± 0.08	0.404 ± 0.12
AUAAAGCAAUAUUACGUUUC	-3.83 ± 0.23	-2.64 ± 0.33
AUACAGCAAUAUUACGAAGG	-3.3 ± 0.24	-2.87 ± 0.28
AUACAGCAAUAUUACGACCG	-1.22 ± 0.096	-0.49 ± 0.1
AUACAGCAAUAUUACGACUC	-0.976 ± 0.086	0.311 ± 0.11
AUACAGCAAUAUUACGAGCA	-2.04 ± 0.24	-1.91 ± 0.23
AUACAGCAAUAUUACGAUGU	-0.929 ± 0.076	-0.0117 ± 0.089
AUACAGCAAUAUUACGCAUA	-1.54 ± 0.12	-0.743 ± 0.13
AUACAGCAAUAUUACGCCAC	-3.08 ± 0.24	-3.12 ± 0.32
AUACAGCAAUAUUACGCCUU	-0.541 ± 0.06	-0.208 ± 0.073
AUACAGCAAUAUUACGCUUU	-3.04 ± 0.18	-1.64 ± 0.15
AUACAGCAAUAUUACGGAAC	-3.46 ± 0.43	-1.67 ± 0.35
AUACAGCAAUAUUACGGACG	-1.61 ± 0.091	-1.04 ± 0.098
AUACAGCAAUAUUACGGAGC	-3.27 ± 0.28	-2.78 ± 0.26
AUACAGCAAUAUUACGGCCU	-0.505 ± 0.093	0.263 ± 0.1

Sequence	self-splicing fitness (ln) (30 °C)	self-splicing fitness (ln) (37 °C)
AUACAGCAAUAUUACGGCUG	-1.95 ± 0.13	-2.6 ± 0.23
AUACAGCAAUAUUACGGUAC	-4.13 ± 0.3	-2.2 ± 0.18
AUACAGCAAUAUUACGGUAG	-1.54 ± 0.075	-0.891 ± 0.087
AUACAGCAAUAUUACGGUAU	-3.46 ± 0.18	-2.99 ± 0.2
AUACAGCAAUAUUACGGUUG	-2.35 ± 0.097	-0.364 ± 0.093
AUACAGCAAUAUUACGUCAU	-1.53 ± 0.084	-0.888 ± 0.088
AUACAGCAAUAUUACGUCGG	-2.35 ± 0.13	-2.13 ± 0.17
AUACAGCAAUAUUACGUCUG	-2.93 ± 0.083	-1.4 ± 0.08
AUACAGCAAUAUUACGUGGA	-3.06 ± 0.12	-2.47 ± 0.12
AUACAGCAAUAUUACGUGGG	-3.45 ± 0.15	-1.53 ± 0.12
AUACAGCAAUAUUACGUUAG	-3.13 ± 0.15	-2.12 ± 0.17
AUACAGCAAUAUUACGUUAU	-3.44 ± 0.13	-2.04 ± 0.1
AUAGAGCAAUAUUACGAAAG	-3.24 ± 0.2	-2.05 ± 0.22
AUAGAGCAAUAUUACGAAGA	-1.28 ± 0.38	
AUAGAGCAAUAUUACGAAGU	-0.306 ± 0.1	-0.662 ± 0.14
AUAGAGCAAUAUUACGAAUC	-3.82 ± 0.25	-2.63 ± 0.3
AUAGAGCAAUAUUACGAAUG	-3.68 ± 0.19	-1.96 ± 0.17
AUAGAGCAAUAUUACGACAA	-1.04 ± 0.07	-0.291 ± 0.092
AUAGAGCAAUAUUACGAGAA		-1.82 ± 0.32
AUAGAGCAAUAUUACGAUGU	-0.266 ± 0.067	0.423 ± 0.095
AUAGAGCAAUAUUACGCGUA	-0.662 ± 0.1	-0.524 ± 0.13
